In IntAct's records for PubMed 20581825:

B1: Periplasmic serine endoprotease DegP (Escherichia coli (strain K12)), P0C0V0 (parent)
chain: MKKTTLALSALALSLGLALSPLSATAAETSSATTAQQMPSLAPMLEKVMPSVVSINVEGSTTVNTPRMPRNFQQFFGDDSPFCQEGSPFQSSPFCQGGQGGNGGGQQQKFMALGSGVIIDADKGYVVTNNHVVDNATVIKVQLSDGRKFDAKMVGKDPRSDIALIQIQNPKNLTAIKMADSDALRVGDYTVAIGNPFGLGETVTSGIVSALGRSGLNAENYENFIQTDAAINRGNSGGALVNLNGELIGINTAILAPDGGNIGIGFAIPSNMVKNLTSQMVEYGQVKRGELGIMGTELNSELAKAMKVDAQRGAFVSQVLPNSSAAKAGIKAGDVITSLNGKPISSFAALRAQVGTMPVGSKLTLGLLRDGKQVNVNLELQQSSQNQVDSSSIFNGIEGAEMSNKGKDQGVVVNNVKTGTPAAQIGLKKGDVIIGANQQAVKNIAELRKVLDSKPSVLALNIQRGDSTIYLLMQ
partner: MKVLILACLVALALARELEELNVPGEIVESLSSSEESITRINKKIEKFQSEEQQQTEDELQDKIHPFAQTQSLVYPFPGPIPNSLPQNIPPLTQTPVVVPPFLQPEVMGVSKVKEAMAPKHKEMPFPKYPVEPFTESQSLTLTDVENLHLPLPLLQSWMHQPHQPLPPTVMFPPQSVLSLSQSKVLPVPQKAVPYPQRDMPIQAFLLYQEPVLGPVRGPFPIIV

Variants of: B1
Conditions: with casb_bovin CSN2, P02666

Variant | effect of a mutation on the interaction
MKKTTLALSALALSLGLALSPLSATAAETSSATTAQQMPSLAPMLEKVMPSVVSINVEGSTTVNTPRMPRNFQQFFGDDSPFCQEGSPFQSSPFCQGGQGGNGGGQQQKFMALGSGVIIDADKGYVVTNNHVVDNATVIKVQLSDGRKFDAKMVGKDPRSDIALIQIQNPKNLTAIKMADSDALRVGDYTVAIGNPFGLGETVTSGIVSALGASGLNAENYENFIQTDAAINRGNSGGALVNLNGELIGINTAILAPDGGNIGIGFAIPSNMVKNLTSQMVEYGQVKRGELGIMGTELNSELAKAMKVDAQRGAFVSQVLPNSSAAKAGIKAGDVITSLNGKPISSFAALRAQVGTMPVGSKLTLGLLRDGKQVNVNLELQQSSQNQVDSSSIFNGIEGAEMSNKGKDQGVVVNNVKTGTPAAQIGLKKGDVIIGANQQAVKNIAELRKVLDSKPSVLALNIQRGDSTIYLLMQ [R213A] | disrupting interaction
MKKTTLALSALALSLGLALSPLSATAAETSSATTAQQMPSLAPMLEKVMPSVVSINVEGSTTVNTPRMPRNFQQFFGDDSPFCQEGSPFQSSPFCQGGQGGNGGGQQQKFMALGSGVIIDADKGYVVTNNHVVDNATVIKVQLSDGRKFDAKMVGKDPRSDIALIQIQNPKNLTAIKMADSDALRVGDYTVAIGNPFGLGETVTSGIVSALGRSGLNAENYENFIQTDAAINRGNSGGALVNLNGELIGINTAILAPDGGNIGIGFAIPSNMVKNLTSQMVEYGQVKRGELGIMGTELNSELAKAMKVDAQRGAFVSQVLPNSSAAKAGIKAGDVITSLNGKPISSFAALAAAVGTMPVGSKLTLGLLRDGKQVNVNLELQQSSQNQVDSSSIFNGIEGAEMSNKGKDQGVVVNNVKTGTPAAQIGLKKGDVIIGANQQAVKNIAELRKVLDSKPSVLALNIQRGDSTIYLLMQ [R351A;Q353A] | decreasing interaction

Variants of: B1
Conditions: with casb_bovin CSN2, P02666
Remark: another data set of the same source

Variant | effect of a mutation on the interaction
MKKTTLALSALALSLGLALSPLSATAAETSSATTAQQMPSLAPMLEKVMPSVVSINVEGSTTVNTPRMPRNFQQFFGDDSPFCQEGSPFQSSPFCQGGQGGNGGGQQQKFMALGSGVIIDADKGYVVTNNHVVDNATVIKVQLSDGRKFDAKMVGKDPRSDIALIQIQNPKNLTAIKMADSDALRVGDYTVAIGNPFGLGETVTSGIVSALGRSGLNAENYENFIQTDAAINRGNSGGALVNLNGELIGINTAILAPDGGNIGIGFAIPSNMVKNLTSQMVEYGQVKRGEWGIMGTELNSELAKAMKVDAQRGAFVSQVLPNSSAAKAGIKAGDVITSLNGKPISSFAALRAQVGTMPVGSKLTLGLLRDGKQVNVNLELQQSSQNQVDSSSIFNGIEGAEMSNKGKDQGVVVNNVKTGTPAAQIGLKKGDVIIGANQQAVKNIAELRKVLDSKPSVLALNIQRGDSTIYLLMQ [L291W] | disrupting interaction
MKKTTLALSALALSLGLALSPLSATAAETSSATTAQQMPSLAPMLEKVMPSVVSINVEGSTTVNTPRMPRNFQQFFGDDSPFCQEGSPFQSSPFCQGGQGGNGGGQQQKFMALGSGVIIDADKGYVVTNNHVVDNATVIKVQLSDGRKFDAKMVGKDPRSDIALIQIQNPKNLTAIKMADSDALRVGDYTVAIGNPFGLGETVTSGIVSALGRSGLNAENYENFIQTDAAINRGNSGGALVNLNGELIGINTAILAPDGGNIGIGFAIPSNMVKNLTSQMVEYGQVKRGELGIMGTELNSELAKAMKVDAQRGAFVSQVLPNSSAAKAGIKAGDVITSLNGKPISSFAALAAAVGTMPVGSKLTLGLLRDGKQVNVNLELQQSSQNQVDSSSIFNGIEGAEMSNKGKDQGVVVNNVKTGTPAAQIGLKKGDVIIGANQQAVKNIAELRKVLDSKPSVLALNIQRGDSTIYLLMQ [R351A;Q353A] | disrupting interaction
